Molecular target: T1, Flag-myc-CAD (Homo sapiens (Human), UniProt Q13586 342-448)
T1 construct: also called Flag-tagged CAD; not shown: Flag and myc tags from the custom vector pDEST-pGWI-Flag-Myc-x
Experiment: co-immunoprecipitation from HEK 293T cells
Experimental: Immunoprecipitation and Immunoblot Analysis. […] Lysates were spun at 12,000 rpm for 10 min, and the supernatant was incubated with anti-Flag M2 agarose beads (Sigma), or anti-myc or -HA antibody followed by IgG agarose beads (Pierce). Lysates and immunoprecipitates were subjected to SDS-PAGE, probed with HRP-conjugated secondary antibody and detected by enhanced chemiluminescence (Pierce).
STIM1-CAD BINDS TO THE N- AND C-TERMINI OF ORAI1. To identify regions of Orai1 important for activation by CAD, we characterized the binding of CAD to Orai1 using two approaches. First we expressed fusions of NubG with the N-terminus, the II-III cytoplasmic loop and the C-terminus of Orai1 in yeast together with different CAD-Cub-LV constructs. […] Based on the level of b-gal activity, CAD appears to interact with the Orai1 C-terminus with a higher affinity than with the N-terminus.

T1 sequence (Q13586 342-448): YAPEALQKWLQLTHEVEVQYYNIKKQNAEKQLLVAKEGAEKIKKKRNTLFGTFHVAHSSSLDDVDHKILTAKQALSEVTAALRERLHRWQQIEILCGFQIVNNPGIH

B1: Orai1 1-70, expressed in HEK 293T cells (other)
chain: MHPEPAPPPSRSSPELPPSGGSTTSGSRRSRRRSGDGEPPGAPPPPPSAVTYPDWIGQSYSEVMSLNEHS
notes: not shown: The detection tag of the HEK construct (probably N-terminal YFP)
Q: Does B1 bind?
A: no binding

Reference: patent publication US20120165265A1 (published 2012)
